According to patent US20250367237A1 (TENEOBIO, published 2025):
Residue numbers refer to the chain shown, from its start.

T1: human c-Kit, GNNK- isoform, expressed on SEM cells (human, UniProt P10721 26-976)
T1 chain: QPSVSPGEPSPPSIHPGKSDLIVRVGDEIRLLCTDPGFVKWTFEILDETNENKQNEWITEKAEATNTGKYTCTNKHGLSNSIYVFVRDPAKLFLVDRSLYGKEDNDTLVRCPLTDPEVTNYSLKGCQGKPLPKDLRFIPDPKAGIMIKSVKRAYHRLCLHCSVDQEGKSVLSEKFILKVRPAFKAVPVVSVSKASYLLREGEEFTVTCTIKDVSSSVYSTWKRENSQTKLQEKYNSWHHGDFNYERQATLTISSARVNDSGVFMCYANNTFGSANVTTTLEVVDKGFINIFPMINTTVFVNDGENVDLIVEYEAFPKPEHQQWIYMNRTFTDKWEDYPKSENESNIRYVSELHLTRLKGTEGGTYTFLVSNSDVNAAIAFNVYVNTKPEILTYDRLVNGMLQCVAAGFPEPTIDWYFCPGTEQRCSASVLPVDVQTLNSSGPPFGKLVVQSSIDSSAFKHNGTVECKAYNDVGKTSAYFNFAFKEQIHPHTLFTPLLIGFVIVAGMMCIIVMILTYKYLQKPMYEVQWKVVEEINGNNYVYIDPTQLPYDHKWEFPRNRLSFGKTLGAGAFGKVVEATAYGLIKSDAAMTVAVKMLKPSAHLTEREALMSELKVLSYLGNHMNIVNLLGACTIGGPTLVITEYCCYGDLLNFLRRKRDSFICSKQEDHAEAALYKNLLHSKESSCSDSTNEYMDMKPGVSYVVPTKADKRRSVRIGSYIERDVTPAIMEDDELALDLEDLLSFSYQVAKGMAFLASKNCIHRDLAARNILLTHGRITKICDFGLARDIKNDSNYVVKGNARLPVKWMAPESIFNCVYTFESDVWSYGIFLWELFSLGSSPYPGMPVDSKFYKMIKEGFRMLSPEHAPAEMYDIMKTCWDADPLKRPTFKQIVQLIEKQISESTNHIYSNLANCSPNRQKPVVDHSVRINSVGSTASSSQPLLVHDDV

B1: anti-c-Kit single domain antibody Clone ID # 408366 (VHH)
VHH: EVQLLESGGGLVQPGGSLRLSCAASGLTISTYAMSWVRQAPGKGLEWVSAISTGGSSTYYADSVKGRFTISRDNSKNTLYLQMNSLRAEDTAVYYCATGYDSSGHYYGGFDYRGQGTLVTVSS
notes: also called F06 family
B2: anti-c-Kit single domain antibody Clone ID # 407921 (VHH)
VHH: B1 VHH with L27F, I29F, S30D, T31S, T53V, G54R, S56G, Y95S, S102P
notes: also called F06 family
B3: anti-c-Kit single domain antibody Clone ID # 408198 (VHH)
VHH: QLQLQESGPGLVKPSETLSLTCTVSGGSISSSSYYWGWIRQPPGKGLEWIGSIDYNGGTYNNPSLKSRVTISVDTSKNQFSLKLSYVTAADTAVYYCARQNPRRYASGASDYRGQGTLVTVSS
notes: also called F18 family
B4: anti-c-Kit single domain antibody Clone ID # 407922 (VHH)
VHH: B1 VHH with T31S, S57R, Y95F
notes: also called F06 family
B5: anti-c-Kit single domain antibody Clone ID # 408389 (VHH)
VHH: B1 VHH with L27F, I29F, S30D, T31S, K43E, S56G, T78M, Y80F, Y95S, H105Y
notes: also called F06 family

Target: T2, recombinant human c-Kit (Acro Biosystems, #CD7-H52H4) (human, UniProt P10721 26-520)
T2 construct: Bought protein; It was loaded on Ni-NTA sensors for binning, so it probably carries a His tag; also called antigen
Test: BLI (Octet HTX), antibody on AHC sensors, c-Kit in solution, 1:1 model
Procedure: Table E3 summarizes affinity and epitope bin information for example anti-c-Kit single domain antibodies of the present disclosure. The affinity of each single domain antibody to recombinant human c-Kit (Acro Biosystems, #CD7-H52H4) was measured by Bio-layer interferometry (BLI) using an Octet HTX. AHC (Anti-hIgG Fc Capture) sensors were used to immobilize test antibody at 5 μg/mL. After baseline readings, sensors were dipped into antigen solutions (starting at 500 nM followed by a 7-point, 2-fold dilution series). Association and dissociation were measured for 180 and 240 seconds, respectively. Data were analyzed with Octet Data Analysis v11.0 HT (ForteBio) using a standard 1:1 binding model. Epitope bins for the single domain antibodies were determined by an in-tandem competition BLI binding experiment using an Octet HTX. The antigen (5 μg/mL) was loaded on the sensor Ni-NTA sensor, followed by a baseline in kinetic buffer. The antigen coated sensor was then dipped into a saturating concentration Antibody 1. A second baseline was then set for 300 seconds. The antigen-Antibody 1 complex was dipped into Antibody 2 solution for 180 seconds and then allowed to dissociate.

Kd | Binder
4.71 nM | B1
2.77 nM | B2
7.28 nM | B3

Target: T3, human c-Kit expressed on NOMO-1 cells (human, UniProt P10721 26-976)
T3 construct: Endogenous c-Kit of the NOMO-1 AML cell line
Test: flow cytometry cell binding dose curve, NOMO-1 cells expressing human c-Kit
Procedure: (§1) The single domain antibodies were tested at a starting concentration of 50 nM, followed by 5-fold serial dilutions for an 8-point dose curve. All washes and dilutions of cells, antibodies, and reagents were performed using flow buffer (lx phosphate buffered saline (PBS), 1% bovine serum albumin (BSA), and 0.1% NaN₃). Cells were pelleted and resuspended at 1×10⁶ cells/mL in flow buffer. Then, 50 μL cells were combined with 50 μL of test antibody and incubated 30 minutes at 4° C., followed by two wash steps with flow buffer. Cells were then resuspended in 50 μL PE-conjugated secondary diluted to 1.25 μg/mL (Southern Biotech #2042-09) and incubated for 20 minutes at 4° C. After two wash steps, cells were resuspended in flow buffer and analyzed using a BD Celesta system. PE mean fluorescence intensity was plotted as a fold over background (cells incubated with secondary detection antibody only).
(§2) To determine cell binding EC50 values for example anti-c-Kit single domain antibodies of the present disclosure, cell binding dose curves were performed on SEM cells expressing human GNNK+c-Kit isoform, SEM cells expressing human GNNK− c-Kit isoform, and NOMO-1 cells expressing human c-Kit. The single domain antibodies were tested at a starting dose of 50 nM, followed by 5-fold serial dilutions for an 8-point dose curve as described in Example 2. The transformed data were plotted as an xy-graph using the non-linear regression curve fit (available in GraphPad Prism 8.4.3) to obtain the EC50 values (nM), which are summarized in Table E2.

EC50 | Binder
0.39 nM | B1
0.26 nM | B2
0.32 nM | B3

Target: T4, human c-Kit, GNNK+ isoform, expressed on SEM cells (human, UniProt P10721 26-976)
T4 construct: also called SEM (GNNK+); CD117
Test: flow cytometry cell binding dose curve, SEM cells expressing human GNNK+ c-Kit
Procedure: as §1, §2

EC50 | Binder
0.08 nM | B1
0.03 nM | B2
0.25 nM | B3

Target: T1, human c-Kit, GNNK- isoform, expressed …
Test: flow cytometry cell binding dose curve, SEM cells expressing human GNNK- c-Kit

EC50 | Binder
0.09 nM | B1
0.03 nM | B2
0.58 nM | B3

Target: T3, human c-Kit expressed on NOMO-1 cells
Test: flow cytometry, antibody supernatant on NOMO-1 cells expressing c-Kit, PE secondary
Procedure: (§3) Pelleted cells were resuspended in flow buffer (lx phosphate buffered saline (PBS), 1% bovine serum albumin (BSA), and 0.1% NaN₃) at 1.25×10⁶ cells/mL. Antibody-containing supernatants were diluted 1:5 in flow buffer and 40 μL cells plus 10 μL diluted antibody supernatant were incubated for 30 minutes at 4° C. Cells were washed with flow buffer and resuspended in 50 μL phycoerythrin (PE)-conjugated secondary antibody (Southern Biotech #2042-09) diluted in flow buffer to 1.25 μg/mL and incubated for 20 minutes at 4° C. After two wash steps, cells were resuspended in flow buffer and analyzed using a Guava easyCyte 8HT system. Table E1 summarizes the target binding activity of the anti-c-Kit single domain antibodies as fold over background MFI signal.

fold over background MFI signal | Binder
43.2 fold over background | B1
30.5 fold over background | B2
31.1 fold over background | B4
43.9 fold over background | B5
45.7 fold over background | B3

Target: T4, human c-Kit, GNNK+ isoform, expressed …
Test: flow cytometry, antibody supernatant on SEM cells expressing human c-Kit GNNK+, PE secondary
Procedure: as §3

fold over background MFI signal | Binder
945 fold over background | B1
814 fold over background | B2
829 fold over background | B4
934 fold over background | B5
388 fold over background | B3

Target: T1, human c-Kit, GNNK- isoform, expressed …
Test: flow cytometry, antibody supernatant on SEM cells expressing human c-Kit GNNK-, PE secondary

fold over background MFI signal | Binder
1760 fold over background | B1
1750 fold over background | B2
1740 fold over background | B4
1790 fold over background | B5
103 fold over background | B3
